From IntAct's records for PubMed 18583988

B1: Nibrin (Homo sapiens), O60934 (parent)
chain: MWKLLPAAGPAGGEPYRLLTGVEYVVGRKNCAILIENDQSISRNHAVLTANFSVTNLSQTDEIPVLTLKDNSKYGTFVNEEKMQNGFSRTLKSGDGITFGVFGSKFRIEYEPLVACSSCLDVSGKTALNQAILQLGGFTVNNWTEECTHLVMVSVKVTIKTICALICGRPIVKPEYFTEFLKAVESKKQPPQIESFYPPLDEPSIGSKNVDLSGRQERKQIFKGKTFIFLNAKQHKKLSSAVVFGGGEARLITEENEEEHNFFLAPGTCVVDTGITNSQTLIPDCQKKWIQSIMDMLQRQGLRPIPEAEIGLAVIFMTTKNYCDPQGHPSTGLKTTTPGPSLSQGVSVDEKLMPSAPVNTTTYVADTESEQADTWDLSERPKEIKVSKMEQKFRMLSQDAPTVKESCKTSSNNNSMVSNTLAKMRIPNYQLSPTKLPSINKSKDRASQQQQTNSIRNYFQPSTKKRERDEENQEMSSCKSARIETSCSLLEQTQPATPSLWKNKEQHLSENEPVDTNSDNNLFTDTDLKSIVKNSASKSHAAEKLRSNKKREMDDVAIEDEVLEQLFKDTKPELEIDVKVQKQEEDVNVRKRPRMDIETNDTFSDEAVPESSKISQENEIGKKRELKEDSLWSAKEISNNDKLQDDSEMLPKKLLLTEFRSLVIKNSTSRNPSGINDDYGQLKNFKKFKKVTYPGAGKLPHIIGGSDLIAHHARKNTELEEWLRQEMEVQNQHAKEESLADDLFRYNPYLKRRR

Variants of: B1
Conditions: with mdc1_human MDC1, Q14676
Sequence of mdc1_human MDC1, Q14676 (Q14676 whole entry): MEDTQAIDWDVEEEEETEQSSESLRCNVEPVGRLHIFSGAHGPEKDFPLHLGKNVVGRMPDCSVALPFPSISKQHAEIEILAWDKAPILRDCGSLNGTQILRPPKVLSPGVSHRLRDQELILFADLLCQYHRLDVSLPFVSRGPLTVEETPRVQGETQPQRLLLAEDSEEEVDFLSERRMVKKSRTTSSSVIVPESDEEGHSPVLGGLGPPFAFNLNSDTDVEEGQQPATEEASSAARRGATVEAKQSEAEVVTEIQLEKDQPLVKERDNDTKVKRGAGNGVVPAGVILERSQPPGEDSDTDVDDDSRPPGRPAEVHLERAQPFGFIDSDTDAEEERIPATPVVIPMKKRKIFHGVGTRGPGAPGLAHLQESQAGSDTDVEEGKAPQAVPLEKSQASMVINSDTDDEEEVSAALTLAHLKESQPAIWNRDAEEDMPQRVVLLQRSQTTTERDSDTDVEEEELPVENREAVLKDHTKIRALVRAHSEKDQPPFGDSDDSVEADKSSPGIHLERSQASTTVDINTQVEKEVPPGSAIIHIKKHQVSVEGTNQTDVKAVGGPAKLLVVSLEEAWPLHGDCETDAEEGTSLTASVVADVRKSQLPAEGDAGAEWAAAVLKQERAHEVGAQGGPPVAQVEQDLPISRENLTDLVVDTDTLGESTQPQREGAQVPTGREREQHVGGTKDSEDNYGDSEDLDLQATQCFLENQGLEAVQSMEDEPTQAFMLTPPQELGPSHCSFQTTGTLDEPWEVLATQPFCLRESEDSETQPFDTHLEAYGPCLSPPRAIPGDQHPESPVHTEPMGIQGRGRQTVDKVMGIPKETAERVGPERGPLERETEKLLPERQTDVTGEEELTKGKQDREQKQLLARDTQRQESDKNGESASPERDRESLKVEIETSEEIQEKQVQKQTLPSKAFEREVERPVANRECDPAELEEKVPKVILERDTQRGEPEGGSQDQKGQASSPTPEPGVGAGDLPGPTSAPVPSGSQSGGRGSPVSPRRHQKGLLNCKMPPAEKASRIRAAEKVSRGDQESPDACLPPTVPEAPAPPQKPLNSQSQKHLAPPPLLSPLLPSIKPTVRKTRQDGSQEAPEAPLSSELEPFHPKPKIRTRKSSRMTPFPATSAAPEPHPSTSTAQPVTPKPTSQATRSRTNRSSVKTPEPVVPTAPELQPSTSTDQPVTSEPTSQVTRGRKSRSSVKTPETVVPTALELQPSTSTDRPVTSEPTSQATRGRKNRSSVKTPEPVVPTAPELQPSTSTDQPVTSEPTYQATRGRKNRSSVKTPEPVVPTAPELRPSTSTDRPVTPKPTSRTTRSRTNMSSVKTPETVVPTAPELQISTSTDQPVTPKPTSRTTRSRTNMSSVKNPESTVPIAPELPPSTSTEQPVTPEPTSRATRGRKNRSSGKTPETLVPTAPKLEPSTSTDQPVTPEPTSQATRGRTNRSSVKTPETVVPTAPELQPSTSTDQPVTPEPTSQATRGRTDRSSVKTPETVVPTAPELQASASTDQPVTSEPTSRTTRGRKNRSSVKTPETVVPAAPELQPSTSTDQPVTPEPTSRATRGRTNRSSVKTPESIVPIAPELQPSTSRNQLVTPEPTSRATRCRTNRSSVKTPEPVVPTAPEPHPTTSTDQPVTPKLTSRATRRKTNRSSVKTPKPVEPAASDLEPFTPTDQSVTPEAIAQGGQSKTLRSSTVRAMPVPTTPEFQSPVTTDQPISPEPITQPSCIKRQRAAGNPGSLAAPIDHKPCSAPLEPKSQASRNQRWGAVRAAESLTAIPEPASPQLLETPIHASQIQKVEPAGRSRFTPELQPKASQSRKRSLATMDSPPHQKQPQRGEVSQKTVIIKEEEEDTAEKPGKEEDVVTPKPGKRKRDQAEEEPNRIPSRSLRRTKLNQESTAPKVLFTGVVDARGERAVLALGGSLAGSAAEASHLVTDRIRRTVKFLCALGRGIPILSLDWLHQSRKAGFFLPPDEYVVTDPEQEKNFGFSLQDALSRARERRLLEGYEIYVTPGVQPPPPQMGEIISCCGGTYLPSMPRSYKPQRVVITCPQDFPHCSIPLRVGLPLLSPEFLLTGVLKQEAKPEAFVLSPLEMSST

Variant	effect of a mutation on the interaction
H45A	disrupting interaction

Variants of: B1
Conditions: with mdc1_human MDC1, Q14676
Remark: another data set of the same source

Variant	effect of a mutation on the interaction
R28A	disrupting interaction

Variants of: B1
Conditions: with mdc1_human MDC1, Q14676
Remark: another data set of the same source

Variant	effect of a mutation on the interaction
K160M	disrupting interaction
